Test results from article PMC7608815.

What was measured:
purified protein [1] = substrate: CC(C)(COP(=O)(O)OP(=O)(O)OC[C@H]1O[C@@H](n2cnc3c(N)ncnc32)[C@H](O)[C@@H]1OP(=O)(O)O)[C@@H](O)C(=O)NCCC(=O)NCCSC(=O)CC(=O)O; test: purified protein; details: 200 uM p-coumaroyl-CoA, 30 C, 120 nM enzyme
purified protein [2] = substrate: COC(=O)c1cccc(O)c1N; test: purified protein; assay type: biochemical, Solanum lycopersicum; details: 200 or 500 uM p-coumaroyl-CoA, 30 C, aminoacylation (amide synthesis)

B1: SlCHS (Solanum lycopersicum) (protein)
chain: MVTVEEYRKAQRAEGPATILAIGTSTPSNCVDQSTYPDYYFRITNSEHKTELKEKFKRMCDKSMIKKRYMHLTEEILKENPNMCAYMAPSLDARQDIVVVEVPKLGKRGTQKAIKEWGQPKSKITHLVFCTTSGVDMPACDYQLAKLLPVRPSVKRLMMYQQGCFAGGTVLRLAKDLAENNKGARVLVVCSEITAVTFRGPSESHLDSLVGQALFGDGAAAIIIGSDPIIGVERPLFELVSAAQTLVPDSEGAIDGHLREVGLTFHLLKDVPGLISKNIEKSLLEAFQPLGISDWNSLFWIAHPGGPAILDQVELKLGLKPEKLRATREVLSNYGNMSSACVLFILDEMRKASTKEGLGTTGEGLEWGVLFGFGPGLTVETVVLHSVAA
Km (purified protein [1]): 21.34 µM
kcat (purified protein [1]): 0.0943 min⁻¹
Km (purified protein [2]): 3.06 mM
kcat (purified protein [2]): 0.362 min⁻¹
